Laboratory results taken from PMC9282883 (Nature, 2021).

B1: S2H97 IgG1 (antibody, V domains shown)
VH: QVRLVQSGAEVKKSGESLKISCKGSGYSFTSYWIGWVRQMPGKGLEWMGIIYPGDSDTRYSPSFQGQVTISADKSISTVYLQWSSLKASDTAMYYCARQWSHYTYDYYYWGQGTLVTISS
VL: QSVLTQPASVSGSPGQSITISCTGISSDVGGYNSVSWYQQHPGKAPKLMIYDVTNRPSGVSNRFSGSKSGNTASLTISGLQAEDEADYYCSSYTSSSTPPYVFGTGTKVSVL
B2: S2H97 Fab (Fab, V domains shown)
VH: B1 VH
VL: B1 VL
B3: S2E12 IgG1 (antibody, V domains shown)
VH: not shown
VL: DIVLTQTPGTLSLSPGERATLSCRASQSVSSSYLAWYQQKPGQAPRLLIYGASSRATGIPDRFSGSGSGTDFTLTISRLEPEDFAVYYCQQYVGLTGWTFGQGTKVEIK
B4: S2E12 Fab (Fab, V domains shown)
VH: not shown
VL: B3 VL
B5: S2D106 IgG1 (antibody, V domains shown)
VH: EVQLVQSGAEVKKPGSSVKVSCKASGGPFSSSAISWVRQAPGQGLEWMGGIIPMVGTANYAQKFQGRVTITADESTSTAYMELSSLRSEDTAVYYCARDSRYCSGGSCYSVWFDPWGQGTLVTVSS
VL: not shown
B6: S2D106 Fab (Fab, V domains shown)
VH: B5 VH
VL: not shown
B7: S304 IgG1 (antibody, V domains shown)
VH: EVQLVESGGGLVQPGGSLRLSCAASGFTFSSYDMHWVRQTTGKGLEWVSTIGTAGDTYYPDSVKGRFTISREDAKNSLYLQMNSLRAGDTAVYYCARGDSSGYYYYFDYWGQGTLLTVSS
VL: DIQMTQSPSSLSAAVGDRVTITCRASQSIGSYLNWYQQKPGKAPKLLIYAASSLQSGVPSRFSGSGSGTDFTLTISSLQPEDFAIYYCQQSYVSPTYTFGPGTKVDIK
B8: S304 Fab (Fab, V domains shown)
VH: B7 VH
VL: B7 VL
B9: S2X35 IgG1 (antibody, V domains shown)
VH: QVQLVQSGAEVKKPGASVKVSCKASGYTFTNYGISWVRQAPGQGLEWMGWISAYKGNTNYAQKLQGRVTMTTDTSTSTAYMELRSLRSDDTAVYYCARPDYQVLGYDFWIGYYGMDVWGQGTTVIVSS
VL: QSVLTQPPSVSGAPGQRVTISCTGSSSNIGAGYDVHWYQQLPGTAPKLLIYGNTNRPSGVPDRFSGSKSGTSASLAITGLQAEDEADYYCQSYDSSLSGSEVVFGGGTKLTVL
B10: S2X35 Fab (Fab, V domains shown)
VH: B9 VH
VL: B9 VL

Molecular target: T1, SARS-CoV-2 RBD WT (for SPR binding assays) (SARS-CoV-2, Wuhan-Hu-1 (WT), UniProt P0DTC2)
Test: SPR

Binder	Kd [nM]
B1	0.04
B2	0.04
B3	0.7
B4	1.7
B5	0.04
B6	0.05
B7	0.4
B8	1
B9	0.06
B10	0.2

Molecular target: T1, SARS-CoV-2 RBD WT (for SPR binding …)
Test: cell-based or functional assay

Binder	IC50, neutralisation of authentic SARS-CoV-2 (SARS-CoV-2-Nluc) on Vero E6 cells [µg/mL]	IC90, neutralisation of authentic SARS-CoV-2 (SARS-CoV-2-Nluc) on Vero E6 cells [µg/mL]
B1	0.749	3.29
B3	0.0045	0.014
B5	0.0068	0.0236
B7	14.4	–
B9	0.179	0.593
